Residue numbers refer to the chain shown, from its start. Each block holds one binder with its values, some of them ahead of it.
Experiments:
human CD19 antigen [1] = target: T1, human CD19 antigen (human, UniProt P15391 20-556); experiment: cell-based or functional assay
T1 sequence (looked up): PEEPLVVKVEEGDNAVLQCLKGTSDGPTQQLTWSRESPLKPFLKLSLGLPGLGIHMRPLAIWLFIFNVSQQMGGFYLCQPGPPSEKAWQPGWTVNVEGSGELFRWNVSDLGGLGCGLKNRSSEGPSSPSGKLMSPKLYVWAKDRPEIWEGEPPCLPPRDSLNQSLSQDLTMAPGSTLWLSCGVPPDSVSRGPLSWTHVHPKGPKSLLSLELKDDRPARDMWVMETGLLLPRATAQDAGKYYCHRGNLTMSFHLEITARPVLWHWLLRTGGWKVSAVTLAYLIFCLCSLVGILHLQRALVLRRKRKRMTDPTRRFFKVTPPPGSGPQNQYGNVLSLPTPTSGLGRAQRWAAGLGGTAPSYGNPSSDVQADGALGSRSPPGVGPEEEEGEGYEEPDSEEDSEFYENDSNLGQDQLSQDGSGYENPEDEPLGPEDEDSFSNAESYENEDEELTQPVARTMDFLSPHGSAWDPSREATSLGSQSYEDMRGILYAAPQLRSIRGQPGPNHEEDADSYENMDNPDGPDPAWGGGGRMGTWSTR

human CD19 antigen [2] = target: T1, human CD19 antigen; experiment: cell based ELISA on 300B4 cells expressing recombinant human CD19, OD450
Experimental: (§1) 300B4 cells were cultured according to standard protocols in RPMI 1640 medium containing L-glutamine and supplemented with 10% Fetal Calf Serum, β-mercaptoethanol in the presence of 1 mg/ml G418. A standard ELISA protocol can be used for the cell based CD19 binding assay. […] Binding reactions are performed in triplicates for each antibody concentration tested. Negative control wells using an isotype matched antibody of irrelevant specificity should be included in the assay. Following incubation with the antibody 300B4 cells are washed three times with 200 micro liter of ELISA buffer. The amount of chimeric, humanized, or human anti-CD19 antibodies bound to 300B4 cells can be detected using a goat anti-human kappa antibody conjugated with horseradish peroxidase according to standard protocols.

human CD19 antigen [3] = target: T1, human CD19 antigen; experiment: cell based ECL binding assay (Meso Scale Discovery; Lu et al. 2006) on 300B4 cells as titled on the sheet, Fab supernatant, signal in Units
Experimental: (§2) CDR specific phage display libraries were generated as described above. Libraries were screened by testing a large number of phage clones (approximately 400 clones per library) in single point cell based binding assay (Lu et al., J. Immunol. Methods 314:74-79 (2006)). Reagents and disposables were purchased from Meso Scale Discovery; assays were performed following the manufacturer's instructions.
(§3) Combinatorial phage display libraries were prepared as described above. Individual Fab clones from the combinatorial library were tested for binding to 300B4 and Raji cells (Lu et al., J. Immunol. Methods 314:74-79 (2006)).

human CD19 antigen [4] = target: T1, human CD19 antigen; experiment: cell based ELISA on 300B4 cells expressing recombinant human CD19, OD450; remark: listed apart in the source
Experimental: as §1
An isotype matched human antibody of irrelevant specificity was included in the assay as a negative control.

human CD19 antigen [5] = target: T1, human CD19 antigen; experiment: cell based ECL binding assay (Meso Scale Discovery; Lu et al. 2006) on 300B4 cells expressing recombinant human CD19, Fab supernatant, signal in Units
Experimental: as §2

human CD19 antigen [6] = target: T1, human CD19 antigen; experiment: cell based ECL binding assay (Meso Scale Discovery; Lu et al. 2006) on Raji cells as titled on the sheet, Fab supernatant, signal in Units
Experimental: as §2, §3

B2: 16C4 affinity matured anti-CD19 IgG antibody (antibody, V domains shown)
VH: EVQLVESGGGLVQPGGSLRLSCAASGFTFSSSWMNWVRQAPGKGLEWVGRIYPGDGDTNYNVKFKGRFTISRDDSKNSLYLQMNSLKTEDTAVYYCARSGFITTVRDFDYWGQGTLVTVSS
VL: EIVLTQSPDFQSVTPKEKVTITCRASESVDTFGISFMNWFQQKPDQSPKLLIHEASNQGSGVPSRFSGSGSGTDFTLTINSLEAEDAATYYCQQSKEVPFTFGGGTKVEIK
- % max. cell kill at 10 ug/ml, DB target cells (human CD19 antigen [1]): 6%
- % max. cell kill at 10 ug/ml, Daudi target cells (human CD19 antigen [1]): 16%
- % max. cell kill at 10 ug/ml, Farage target cells (human CD19 antigen [1]): 13%
- % max. cell kill at 10 ug/ml, Granta-519 target cells (human CD19 antigen [1]): 0%
- % max. cell kill at 10 ug/ml, Karpas-422 target cells (human CD19 antigen [1]): 6%
- % max. cell kill at 10 ug/ml, Karpas-1106P target cells (human CD19 antigen [1]): 16%
- % max. cell kill at 10 ug/ml, Nalm-6 target cells (human CD19 antigen [1]): 17%
- % max. cell kill at 10 ug/ml, Namalwa target cells (human CD19 antigen [1]): 4%
- % max. cell kill at 10 ug/ml, Oci-LY19 target cells (human CD19 antigen [1]): 6%
- % max. cell kill at 10 ug/ml, RL target cells (human CD19 antigen [1]): 15%
- % max. cell kill at 10 ug/ml, Raji target cells (human CD19 antigen [1]): 26%
- % max. cell kill at 10 ug/ml, Toledo target cells (human CD19 antigen [1]): 12%
- ADCC EC50, Daudi target cells (human CD19 antigen [1]): 0.0576 ng/mL
- ADCC EC50, Farage target cells (human CD19 antigen [1]): 0.0927 ng/mL
- ADCC EC50, Karpas-1106P target cells (human CD19 antigen [1]): 0.533 ng/mL
- ADCC EC50, RL target cells (human CD19 antigen [1]): 0.0393 ng/mL
- ADCC EC50, Raji target cells (human CD19 antigen [1]): 0.012 ng/mL
- ADCC EC50, Toledo target cells (human CD19 antigen [1]): 0.0545 ng/mL

B5: 6C11 affinity matured Fab (Fab, V domains shown)
VH: B2 VH with S32V, P53L
VL: B2 VL with Q58P, S95T, E97R
notes: Fab
- EC50 (read off the curve) (human CD19 antigen [3]): ~500 ng/mL

B7: 64D4 affinity matured Fab (16C4 variant, VH CDR2 Pro > Leu at 52A) (Fab, V domains shown)
VH: B2 VH with P53L
VL: B2 VL
notes: Fab with human γ1 CH1 and human kappa constant domain; position is Kabat
- EC50 (read off the curve) (human CD19 antigen [5]): ~1000 ng/mL

B8: 16C4 Fab (Fab, V domains shown)
VH: B2 VH
VL: B2 VL
notes: Fab with human γ1 CH1 and human kappa constant domain; also called Clone 16C4; 16C4sup
- EC50 (read off the curve) (human CD19 antigen [5]): ~1000 ng/mL

B9: 3C3 affinity matured Fab (16C4 variant) (Fab, V domains shown)
VH: B2 VH with S32V
VL: B2 VL with T31H, M37I, Q58P, G59Y, Q93A, F100I
notes: Fab
- EC50 (read off the curve) (human CD19 antigen [6]): ~300 ng/mL
- EC50 (read off the curve) (human CD19 antigen [3]): ~400 ng/mL

B10: 5C4 affinity matured Fab (Fab, V domains shown)
VH: B2 VH with S32V
VL: B2 VL with D30I, M37I, Q58P, G59Y, Q93A, S95T, E97R
notes: Fab
- EC50 (read off the curve) (human CD19 antigen [3]): ~400 ng/mL

B11: Chimeric HB12B antibody comprising HB12B VH and HB12B VK (antibody, human IgG1, V domains shown)
VH: QVQLQQSGPELVKPGASVKISCKASGYAFSSSWMNWVIQRPGQGLEWIGRIYPGDGDTNYNGKFKGKATLTADKSSSTAYMQLSSLTSVDSAVYFCARSGFITTVLDFDYWGHGTTLTVSS
VL: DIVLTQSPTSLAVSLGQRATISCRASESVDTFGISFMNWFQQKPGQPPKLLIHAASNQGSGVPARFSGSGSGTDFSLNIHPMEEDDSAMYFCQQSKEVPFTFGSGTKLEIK
notes: also called chHB12B; chimeric anti-CD19 antibody
- EC50 (read off the curve) (human CD19 antigen [4]): ~200 ng/mL
- EC50 (read off the curve) (human CD19 antigen [2]): ~80 ng/mL

Further lines, with some results ahead:

- ADCC EC50, Daudi target cells (human CD19 antigen [1]): 0.0031 ng/mL
- ADCC EC50, Farage target cells (human CD19 antigen [1]): 0.0141 ng/mL
- ADCC EC50, Karpas-422 target cells (human CD19 antigen [1]): 0.0181 ng/mL
- ADCC EC50, Karpas-1106P target cells (human CD19 antigen [1]): 0.009 ng/mL
- ADCC EC50, Nalm-6 target cells (human CD19 antigen [1]): 0.0199 ng/mL
- ADCC EC50, Namalwa target cells (human CD19 antigen [1]): 0.012 ng/mL
- ADCC EC50, Oci-LY19 target cells (human CD19 antigen [1]): 0.0163 ng/mL
- ADCC EC50, RL target cells (human CD19 antigen [1]): 0.0073 ng/mL
- ADCC EC50, Raji target cells (human CD19 antigen [1]): 0.003 ng/mL
- ADCC EC50, Toledo target cells (human CD19 antigen [1]): 0.0075 ng/mL
B1: afucosylated 16C4 anti-CD19 antibody (antibody, human IgG1, V domains shown)
VH: B2 VH
VL: B2 VL
modifications: afucosylated Fc N-glycan (as for 3649-aFuc)
- % max. cell kill at 10 ug/ml, DB target cells (human CD19 antigen [1]): 34%
- % max. cell kill at 10 ug/ml, Daudi target cells (human CD19 antigen [1]): 50%
- % max. cell kill at 10 ug/ml, Farage target cells (human CD19 antigen [1]): 48%
- % max. cell kill at 10 ug/ml, Granta-519 target cells (human CD19 antigen [1]): 6%
- % max. cell kill at 10 ug/ml, Karpas-422 target cells (human CD19 antigen [1]): 62%
- % max. cell kill at 10 ug/ml, Karpas-1106P target cells (human CD19 antigen [1]): 59%
- % max. cell kill at 10 ug/ml, Nalm-6 target cells (human CD19 antigen [1]): 35%
- % max. cell kill at 10 ug/ml, Namalwa target cells (human CD19 antigen [1]): 23%
- % max. cell kill at 10 ug/ml, Oci-LY19 target cells (human CD19 antigen [1]): 47%
- % max. cell kill at 10 ug/ml, RL target cells (human CD19 antigen [1]): 45%
- % max. cell kill at 10 ug/ml, Raji target cells (human CD19 antigen [1]): 43%
- % max. cell kill at 10 ug/ml, Toledo target cells (human CD19 antigen [1]): 48%

- EC50 (read off the curve) (human CD19 antigen [2]): ~80 ng/mL
B3: humanized anti-CD19 antibody #2 comprising HB12B-(3-72/JH4) VH, HB12B-3649 VK, and IgG1 heavy chain constant region (antibody, V domains shown)
VH: B2 VH with V62G, R106L
VL: B2 VL with E54A
notes: also called humanized HB12B antibody #2

- ADCC EC50, Daudi target cells (human CD19 antigen [1]): 0.0576 ng/mL
- ADCC EC50, Farage target cells (human CD19 antigen [1]): 0.0536 ng/mL
- ADCC EC50, Karpas-422 target cells (human CD19 antigen [1]): 0.0442 ng/mL
- ADCC EC50, Karpas-1106P target cells (human CD19 antigen [1]): 0.0142 ng/mL
- ADCC EC50, Nalm-6 target cells (human CD19 antigen [1]): 0.0605 ng/mL
- ADCC EC50, Namalwa target cells (human CD19 antigen [1]): 0.04 ng/mL
- ADCC EC50, Oci-LY19 target cells (human CD19 antigen [1]): 0.0518 ng/mL
- ADCC EC50, RL target cells (human CD19 antigen [1]): 0.0194 ng/mL
- ADCC EC50, Raji target cells (human CD19 antigen [1]): 0.009 ng/mL
- ADCC EC50, Toledo target cells (human CD19 antigen [1]): 0.0155 ng/mL
B4: afucosylated 3649 anti-CD19 antibody (antibody, human IgG1, V domains shown)
VH: B2 VH with V62G, R106L
VL: B2 VL with E54A
modifications: complex N-glycoside-linked sugar chains linked to Asn297 of the Fc region in which fucose is not bound to N-acetylglucosamine in the reducing end
- % max. cell kill at 10 ug/ml, DB target cells (human CD19 antigen [1]): 42%
- % max. cell kill at 10 ug/ml, Daudi target cells (human CD19 antigen [1]): 51%
- % max. cell kill at 10 ug/ml, Farage target cells (human CD19 antigen [1]): 48%
- % max. cell kill at 10 ug/ml, Granta-519 target cells (human CD19 antigen [1]): 9%
- % max. cell kill at 10 ug/ml, Karpas-422 target cells (human CD19 antigen [1]): 64%
- % max. cell kill at 10 ug/ml, Karpas-1106P target cells (human CD19 antigen [1]): 59%
- % max. cell kill at 10 ug/ml, Nalm-6 target cells (human CD19 antigen [1]): 39%
- % max. cell kill at 10 ug/ml, Namalwa target cells (human CD19 antigen [1]): 25%
- % max. cell kill at 10 ug/ml, Oci-LY19 target cells (human CD19 antigen [1]): 54%
- % max. cell kill at 10 ug/ml, RL target cells (human CD19 antigen [1]): 46%
- % max. cell kill at 10 ug/ml, Raji target cells (human CD19 antigen [1]): 44%
- % max. cell kill at 10 ug/ml, Toledo target cells (human CD19 antigen [1]): 53%

- EC50 (read off the curve) (human CD19 antigen [4]): ~200 ng/mL
- EC50 (read off the curve) (human CD19 antigen [2]): ~70 ng/mL
B6: humanized anti-CD19 antibody #1 comprising HB12B-(3-72/JH4) VH and HB12B-364987 VK (antibody, human IgG1, V domains shown)
VH: B2 VH with V62G, R106L
VL: B2 VL with E54A, Y91F
notes: Human IgG1/kappa constant regions; also called humanized HB12B antibody #1

Source: patent US20180273621A1 (AstraZeneca / MedImmune, published 2018)
